Measurements reported in paper PMC9204741 (2022).

T1: His6-SmiA (B. subtilis)
T1 chain: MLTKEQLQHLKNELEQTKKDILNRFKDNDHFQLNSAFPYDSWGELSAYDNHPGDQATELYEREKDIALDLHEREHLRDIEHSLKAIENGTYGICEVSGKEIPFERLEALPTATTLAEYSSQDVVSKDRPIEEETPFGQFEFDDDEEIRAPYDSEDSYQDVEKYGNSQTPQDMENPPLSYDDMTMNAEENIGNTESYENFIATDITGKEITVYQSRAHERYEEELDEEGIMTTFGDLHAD


What was measured:
LonA-His6 (B. subtilis) = LonA-His6 (B. subtilis) (UniProt P37945)
His6-SmiA [1] = molecular target: T1, His6-SmiA; assay: BLI
His6-SmiA [2] = molecular target: T1, His6-SmiA; assay: BLI; His6-SmiA (300 nM) loaded on anti-penta-His (HIS1K) biosensors; GST-SwrA variants 50-400 nM as analyte; 1x PBS, 1x kinetics buffer, 2% dialyzed fetal bovine serum, 0.5 mM TCEP; 1:1 binding model; Octet RED96

Chain of LonA-His6 (B. subtilis) (P37945 whole entry): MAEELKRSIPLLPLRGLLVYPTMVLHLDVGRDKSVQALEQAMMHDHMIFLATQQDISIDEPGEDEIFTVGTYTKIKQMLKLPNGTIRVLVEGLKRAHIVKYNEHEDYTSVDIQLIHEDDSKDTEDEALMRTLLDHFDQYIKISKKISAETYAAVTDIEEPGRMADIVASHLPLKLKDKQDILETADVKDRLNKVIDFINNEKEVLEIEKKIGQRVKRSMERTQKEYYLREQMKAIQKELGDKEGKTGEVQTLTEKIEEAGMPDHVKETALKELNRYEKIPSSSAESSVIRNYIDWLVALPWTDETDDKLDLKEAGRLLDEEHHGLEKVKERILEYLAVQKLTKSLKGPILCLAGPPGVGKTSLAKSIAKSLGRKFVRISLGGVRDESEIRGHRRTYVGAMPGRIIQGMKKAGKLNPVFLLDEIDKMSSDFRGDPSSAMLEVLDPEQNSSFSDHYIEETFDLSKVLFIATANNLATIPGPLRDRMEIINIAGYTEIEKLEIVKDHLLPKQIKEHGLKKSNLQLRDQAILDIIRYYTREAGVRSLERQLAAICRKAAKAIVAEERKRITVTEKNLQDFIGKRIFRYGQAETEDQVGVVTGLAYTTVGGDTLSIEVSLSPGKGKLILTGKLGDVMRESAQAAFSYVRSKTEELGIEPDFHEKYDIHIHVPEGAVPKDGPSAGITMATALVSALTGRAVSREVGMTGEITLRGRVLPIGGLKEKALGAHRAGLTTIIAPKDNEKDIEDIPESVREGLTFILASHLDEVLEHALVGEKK

Km of in vitro proteolysis of GST-mNG-SwrA (loss of fluorescence) with 0.25 μM LonA and 0.5 μM SmiA (LonA-His6 (B. subtilis))	Kd (His6-SmiA [1])	koff (His6-SmiA [2])	kon (His6-SmiA [2])	Kd (His6-SmiA [2])	Molecule
1.14 µM	–	–	–	–	GST-mNG-SwrA (from UniProt O32266 1-117) (natural protein)
–	60.9 nM	0.0093 s⁻¹	153000 M⁻¹ s⁻¹	–	GST-SwrA (natural protein) MKRASIVREKKYYELVEQLKDRTQDVTFSATKALSLLMLFSRYLVNYTNVESVNDINEECAKHYFNYLMKNHKRLGINLTDIKRSMHLISGLLDVDVNHYLKDFSLSNVTLWMTQER
–	43.2 nM	0.00418 s⁻¹	96800 M⁻¹ s⁻¹	43.2 nM	GST-SwrA^Δ101–117 (domain or fragment) MKRASIVREKKYYELVEQLKDRTQDVTFSATKALSLLMLFSRYLVNYTNVESVNDINEECAKHYFNYLMKNHKRLGINLTDIKRSMHLISGLLDVDVNHY
